In patent US20170342148A1 (UNIVERSITE DE NANTES, published 2017):

Key:
[1] = biological target: T1, recombinant protein IL-34 (Peprotech Ref 200-34, whole protein without signal peptide with His tag on … (UniProt Q6ZMJ4 21-242)); experiment: SPR (BIAcore T100), antibody captured, IL-34 as analyte
T1 construct: mature; also called IL-34 protein; recombinant IL-34; not shown: C-terminal His tag
T1 sequence (looked up): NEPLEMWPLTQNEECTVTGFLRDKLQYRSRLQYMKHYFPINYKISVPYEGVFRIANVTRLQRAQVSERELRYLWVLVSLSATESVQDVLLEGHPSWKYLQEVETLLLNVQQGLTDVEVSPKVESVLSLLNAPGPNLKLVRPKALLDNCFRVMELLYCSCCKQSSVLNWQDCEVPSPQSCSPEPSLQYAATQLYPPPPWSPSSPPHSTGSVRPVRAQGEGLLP
Experimental: (§1) Theses interaction were performed at 25° C., in HBS-P+ buffer (HEPES 10 mM pH 7.4; NaCl 150 mM; P20 0.05%) by administrating different concentrations of IL-34 obtained by serial dilution of the protein IL-34 (Peprotech Ref 200-34, whole protein without signal peptide with His tag on C-terminal).
(§2) The regeneration is performed by administering 10 mM of Glycine-HCl buffer at pH=1.7 allowing dissociating the antibody IL-34 from immobilized polyclonal antibody.

[2] = biological target: T2, M-CSF receptor (R&D-Systems ref: 329-MR) (UniProt P07333 20-512); experiment: SPR (BIAcore T100), antibody injected over immobilised M-CSF-R
T2 construct: Bought soluble receptor, immobilised covalently on a CM5 chip; also called CSF-1 receptor; receptor M-CSF-R
Experimental: The measurement of surface plasmon resonance (SPR) was performed on BIACore T100. The microarrays CM5 (CM-dextran, 1-ethyl-3-(3-[…]) carbodiimide hydrochloride (EDC) and N-Hydroxysuccinimide (NHS) have been purchased by GE Healthcare BIAcore and used according to manufacture instructions.
The ligand, M-CSF receptor (R&D-Systems ref: 329-MR) was immobilized covalently on the CM5 microarray surface. Capture level of […] is comprised between 600 and 800 RU.
Theses interaction were performed at 25° C., in HBS-P+ buffer (HEPES 10 mM pH 7.4; NaCl 150 mM; P20 0.05%).

[3] = biological target: T1, recombinant protein IL-34 (Peprotech …); experiment: SPR (BIAcore T100), antibody captured on immobilised polyclonal anti-mouse antibody, IL-34 as analyte, 25 °C, 1:1 model
Experimental: as §1, §2
The obtained results are shown by sensograms of FIG. 2.

T2 sequence (P07333 20-512 limits assumed): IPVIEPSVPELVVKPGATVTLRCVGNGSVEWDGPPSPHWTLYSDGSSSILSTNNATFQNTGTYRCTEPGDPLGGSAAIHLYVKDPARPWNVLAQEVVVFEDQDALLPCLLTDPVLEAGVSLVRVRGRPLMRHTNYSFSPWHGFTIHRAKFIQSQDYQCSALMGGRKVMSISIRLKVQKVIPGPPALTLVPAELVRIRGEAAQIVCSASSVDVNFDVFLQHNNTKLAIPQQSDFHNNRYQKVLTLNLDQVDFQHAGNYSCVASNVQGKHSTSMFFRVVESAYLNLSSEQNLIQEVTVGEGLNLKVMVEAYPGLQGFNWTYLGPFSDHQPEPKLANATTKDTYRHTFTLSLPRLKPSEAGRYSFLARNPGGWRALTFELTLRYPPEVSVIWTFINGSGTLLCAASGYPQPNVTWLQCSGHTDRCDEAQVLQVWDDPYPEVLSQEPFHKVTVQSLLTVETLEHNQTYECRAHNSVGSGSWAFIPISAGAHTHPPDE

koff [1]: < 1e-06 s⁻¹ | binding result [2]: no binding (tested: 10 nM) | Kd [3]: 9.4 pM | koff [3]: 2.9e-07 s⁻¹ | kon [3]: 31000 M⁻¹ s⁻¹
B1: murine anti-IL-34 antibody (clone BT34) (antibody, V domains shown)
VH: EVQLQQFGAELVKPGASVKISCKASGYTFTDYNMDWVKQSHGKSLEWIGDINPNYESTTYNQKFKGKATLTVDRSSSTAYMELRSLTSEDTAVYYCLRSGGDYWGQGTTLTVSS
VL: DVLMTQTPLSLPVGLGDQASISCRSSQTIVHSNGKTYLEWYLQKPGQSPKLLIYKVSNRFSGVPDRFSGSGSGTDFTLKISRVEAEDLGVYYCFQGSHVPLTFGAGTKLELK
notes: Murine monoclonal antibody from a hybridoma; No single sentence ties these numbers to BT34; also called anti-IL-34 antibody BT34; anti-IL-34 BT34 clone
